Source: the supplement of paper PMC9170038

Assays:
MS2 coat protein [1] = assay: apparent KD of MS2 coat protein, switch ON state; designed switch direction (-1 OFF switch, 1 ON switch): -1; higher = weaker reporter binding; settings: FMN input: 0 or 200 uM; Eterna round: R93 (includes R88 designs)
Procedure, shortened: (§1)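 In 100 mM Tris-HCl pH 7.5 with 80 mM KCl and 4 mM MgCl2, and without or with constant ligand, SNAP-549-labelled MS2 coat protein was titrated in twofold steps from 0.7 or 1.5 nM to 3 µM. Per-step times went from 0.8–1.5 h down to 10–20 min. The RNA switches were transcribed on-chip from Illumina sequencing clusters, and apparent KD is the per-design median of normalised cluster binding-curve fits.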

MS2 coat protein [2] = assay: apparent KD of MS2 coat protein, switch OFF state (with FMN for OFF switches, without FMN for ON switches); designed switch direction (-1 OFF switch, 1 ON switch): -1; higher = weaker reporter binding; settings: FMN input: 0 or 200 uM; Eterna round: R93 (includes R88 designs)
Procedure, shortened: as §1

Sequence | apparent KD of MS2 coat protein (MS2 coat protein [1]) | apparent KD of MS2 coat protein (MS2 coat protein [2])
AAGUAACAUGAGGAUCACCCAUGUGAGGAUAUGAUUUAAGUUGUAAAAGUAAUAAAGGUCAGAAGGUAUGUGAA [Exclusion 1.2] | 30.9 nM | 34.7 nM
AAUAUCGGAGGAUAUGCAUAGAUAAAGAAUUAUGUUAAAACACAUGAGGAUCACCCAUGUAGAAGGCCGAUAAA [AJ 8] | 22.2 nM | 88 nM
AGCUAGUCAGGAUAUACGAACAUGUCAAAAGACGUGAAGGGACAUGAGGAUCACCCAUGUAGAAGGGACUAGCG [salish99-ex2-14] | 36 nM | 103 nM
AAAGUGUGAGGAUAUGCGAAAGGACACGAAAGUGACAAAGAGCAGAAGGUACAUGAGGAUCACCCAUGUAAAAA [milkweed 19] | 27.2 nM | 20.4 nM
AAGAAUGCAGGAUAUACAUGAGGAUCACCCAUGUAAAAGAAAGAAGGGAAAGAGAAAAGUAGAAGGGCAAAGAA [Bakare Tantamani] | 36 nM | 47.2 nM
AGAAAGUGAGGAUAUACAUGAGGAUCACCCAUGUAGAACGAGAGUUAUAAAAAUGGAAGUAGAAGGCACAAAAG [Meechl MS2 Ex3] | 28.3 nM | 32.8 nM
AAGAAGUUAGGAUAUGCUGCUCGUCACAAAAGUGAUGAGUAGCAGAAGGGACAUGAGGAUCACCCAUGUAAAGA [JL eternac mod 5] | 36.7 nM | 24.1 nM
AUCAUGUUAGGAUAUUUAAGAAAAGAAAAGAAAGAAAAGAAAAAGAAGGAACAUGAGGAUCACCCAUGUAAGAA [EteRNA is fun!] | 27.5 nM | 22 nM
AACAGUACAGGAUAUACAUGAGGAUCACCCAUGUCACAACAAAGCAGCGUAACACAAAGUAGAAGGGUAAUGGA [Ruby 16] | 48.6 nM | 39.5 nM
AAAAAACAUGAGGAUCACCCAUGUGAGGAUAUGACGUAAAUAAAGAAAGAAUAAAUCGUCAGAAGGCACAAAAA [Mat - Exclusion 1 - Eli mod - D72] | 31.4 nM | 40.3 nM
AGCUAGUCAGGAUAUACGAAAAUGUCAGAAGCUGAGAAGGGACAUGAGGAUCACCCAUGUAGAAGGGACUAGCA [Diamond 37] | 70.2 nM | 316 nM
AAAAAGUGAGGAUAUUCGGAAGGGAAAGCGCAAACCCAACCGAAGAAGGCACAUGAGGAUCACCCAUGUGGAAA [Ecls4-III 65% - Early + late G segment 2] | 32.1 nM | 26.8 nM
AAAAAGGGAGGAUAUACAUGAGGAUCACCCAUGUAAAAAAAAAAAAAAAAAAGGGAAGGUAGAAGGCCCAAAAA [Excls3-I] | 64.6 nM | 21.1 nM
AACUGACAUGAGGAUCACCCAUGUCAGGAUAUGCUUCAUAAAAACAAACAAAAAUGAUGCAGAAGGGACAUGGG [Design 31 :P Sub-opt 7] | 17.1 nM | 39.5 nM
AAAAAACAUGAGGAUCACCCAUGUAAGGAUAUGCUAAAAAACACGGAAAACGUGAAUAGCAGAAGGUACAAAAA [66%, Wbt, 30] | 21.5 nM | 38.5 nM
AAGAAACAUGAGGAUCACCCAUGUAAGGAUAUGUAAAAGAAAAGAAAAGAAAGAAGAAACAGAAGGUACAAAGG [Wahankh Intef II] | 46 nM | 33.7 nM
AAGAAGUAAGGAUAUGCUGCUCGUCACAAAAGUGAUGAGUAGCAGAAGGUACAUGAGGAUCACCCAUGUAAAGA [JL eternac mod 3] | 26 nM | 20.3 nM
AAAUUGUCAGGAUAUCUGGAUAGGAAAAAGAAAACCUAUCCAGAGAAGGGACAUGAGGAUCACCCAUGUAAAAA [JL cataway mod 1] | 81.1 nM | 107 nM
GAAAACAGAGGAUAUACAUAAGCUAGACGAAAGUCUAGCAAACAUGAGGAUCACCCAUGUAGAAGGCUGAAGAA [Meechl Mod] | 29.2 nM | 27.7 nM
AAGAAGUGAGGAUAUACAUGAGGAUCACCCAUGUAAAAGAAAGAAAGGGAAAAGAAAAGUAGAAGGCGCAAGAA [Aakheperre Shoshenq V] | 34.1 nM | 44.7 nM
AAGAAACAAGGAUAUACAUGAGGAUCACCCAUGUAAAAGAAAGAAAGGGAAGAGAAAAGUAGAAGGUGUAAGAA [Publius Rubrius Barbarus] | 26.1 nM | 46 nM
AAGAAAGGAGGAUAUACAUGAGGAUCACCCAUGUAAAAGAAAGAGGGAAAAGAGAAAAGUAGAAGGCCUAAGAA [Ptolemy IX Soter II] | 30.8 nM | 39.1 nM
AAGAAACAUGAGGAUCACCCAUGUGAGGAUAUGCAAAAGAAAAGAAAAGAAAGAAGAAGCAGAAGGCACAAAGG [Neferkahor] | 49.1 nM | 138 nM

Sequence | apparent KD of MS2 coat protein (MS2 coat protein [1]) | apparent KD of MS2 coat protein (MS2 coat protein [2])
AAGGGACAUGAGGAUCACCCAUGUCAGGAUAUCGGAAAAGGAAAAAUAAAAAAGAAGACGAGAAGGGACACCAA [Mat - Exclusion 1 - Eli mod - D77] | 38.4 nM | 32.4 nM
AAAGUGUCAGGAUAUGCUGCUCGUCACGAAAGUGAUGAGUAGCAGAAGGGACAUGAGGAUCACCCAUGUAAAGA [Exclusion 4.1d (Exclusion4-cac2 - mutated U at 5 and G at 4)] | 110 nM | 205 nM
AUAAAACAUGAGGAUCACCCAUGUCAGGAUAUACGAUAUUAAAUUUAAUAUAUUUAUAGUAGAAGGGACAAAUA [High Five] | 31.6 nM | 37.1 nM
UAAAAACAUGAGGAUCACCCAUGUGAGGAUAUCGAAAAAAAAAAAUUAAAAAAGGAAGCGAGAAGGUACGGGAU [close, no cigar] | 33.3 nM | 33.2 nM
AAAAAUCGAGGAUAUACAUGAGGAUCACCCAUGUCAGAAAAUGACUACACAAAAGAAAGUAGAAGGCGAUAAAG [Mat - Exclusion 3 - Mayanna mod - D131] | 32 nM | 64.1 nM
AAAGGAUCAGGAUAUGUGUGGAAAAAGUGUAUUCAAAAAAAACAUGAGGAUCACCCAUGUAGAAGGGAUCCAAA [Mod of 2Normal (20/19) by Nando, Round 1] | 298 nM | 397 nM
AAAAAACAUGAGGAUCACCCAUGUCAGGAUAUGCAGAAAAAGAAAAAAAGAAAAGAAAGUAGAAGGGACAAAAA [May 7] | 31.2 nM | 31.8 nM
AGAAAACAUGAGGAUCACCCAUGUGAGGAUAUGCGAAAAGAAAGAAAAUAAAAUAAAAGCAGAAGGUACAAAUA | 29.9 nM | 31.3 nM
AAUAACUGAGGAUAUACUAAAGAAAUGAAAAGAAAUAAAGAACAUGAGGAUCACCCAUGUAGAAGGCAGAAUAA [Nuya] | 32 nM | 30.6 nM
GAGGAACAUGAGGAUCACCCAUGUGAGGAUAUCGGAGGAGGAGGAGGAGGAGGAGGAGCGAGAAGGUACAAGAG [salish99-Ex1-03] | 22.7 nM | 29.8 nM
AAAAAGGCAGGAUAUACGAACAUGUCAAAAGACGUGAAGGGACAUGAGGAUCACCCAUGUAGAAGGGUCAAGAA [JL Stem Breaker 18] | 218 nM | 52.1 nM
AAAAAUCGAGGAUAUACAUGAGGAUCACCCAUGUGGGACCAAGAAAACACAAAAGAAAGUAGAAGGCGAUAAAA [Ex 3 May 23] | 21.9 nM | 76.4 nM
AAGACUAGAGGAUAUACAUGAGGAUCACCCAUGUAACUGUCAGGUGACUGACGGAGAAGUAGAAGGCUAGUCAA [Mat - Exclusion 3 - JL mod - D83] | 14.6 nM | 19.9 nM
AAAAAACGAGGAUAUACAAAAACAAAAGGAACAAAAUACAAACAUGAGGAUCACCCAUGUAGAAGGCGUAAAAA [Default title] | 29.5 nM | 23.5 nM
AGGUACCUAGGAUAUACAUGAGGAUCACCCAUGUCACAAAUAAAACACAGGUAUCCUGGUAGAAGGAGGAACAA [Veinle] | 24.1 nM | 36.5 nM
AUAGGCCUAGGAUAUACAUGAGGAUCACCCAUGUUAAUACUUCAAUCAAGAUAAAAGUGUAGAAGGAGGAAUAA [JR_Exc003_Sub306] | 26.7 nM | 30.9 nM
AAAAUGUCAGGAUAUGCGAAGGCGUCUGAUAGACGAGGCUAGCAGAAGGGACAUGAGGAUCACCCAUGUAAAAA [Power strip] | 82.2 nM | 179 nM
UCCGAACAUGAGGAUCACCCAUGUCAGGAUAUACACCCAGCAUGUAAACCAUGCUCAAGUAGAAGGGACGGGUG [Teisaes] | 34.9 nM | 25.7 nM
UAUAUACAUGAGGAUCACCCAUGUCAGGAUAUGCGCCUAGAAUAUACAUAAGAUACAAGCAGAAGGGACACUAA [JR_Exc001_Sub206] | 57.3 nM | 49.9 nM
AAGAAGAGAGGAUAUACUAAAGAAAUGAAAAGAAAUAAAGAACAUGAGGAUCACCCAUGUAGAAGGCUCAAGAA ['Ammu Ahotepre] | 25.5 nM | 21 nM
AAAGUACGAGGAUAUACAUAGAUACAGAUACAUGUAGACGUACAUGAGGAUCACCCAUGUAGAAGGCGUACAUA [Mat - Same state - Mayanna Mod - D115] | 154 nM | 74.7 nM
AAGAAACAAGGAUAUACAAGGAAGAAAGAAAAGAAAAGAAAACAUGAGGAUCACCCAUGUAGAAGGUGUUAGAA [EteRNA is fun!] | 40.3 nM | 27.9 nM
